Test results taken from IntAct's records for PubMed 21934712.

Molecular target: scc4_human MAU2 (UniProt Q9Y6X3)
Chain of UniProt Q9Y6X3 (Q9Y6X3 whole entry): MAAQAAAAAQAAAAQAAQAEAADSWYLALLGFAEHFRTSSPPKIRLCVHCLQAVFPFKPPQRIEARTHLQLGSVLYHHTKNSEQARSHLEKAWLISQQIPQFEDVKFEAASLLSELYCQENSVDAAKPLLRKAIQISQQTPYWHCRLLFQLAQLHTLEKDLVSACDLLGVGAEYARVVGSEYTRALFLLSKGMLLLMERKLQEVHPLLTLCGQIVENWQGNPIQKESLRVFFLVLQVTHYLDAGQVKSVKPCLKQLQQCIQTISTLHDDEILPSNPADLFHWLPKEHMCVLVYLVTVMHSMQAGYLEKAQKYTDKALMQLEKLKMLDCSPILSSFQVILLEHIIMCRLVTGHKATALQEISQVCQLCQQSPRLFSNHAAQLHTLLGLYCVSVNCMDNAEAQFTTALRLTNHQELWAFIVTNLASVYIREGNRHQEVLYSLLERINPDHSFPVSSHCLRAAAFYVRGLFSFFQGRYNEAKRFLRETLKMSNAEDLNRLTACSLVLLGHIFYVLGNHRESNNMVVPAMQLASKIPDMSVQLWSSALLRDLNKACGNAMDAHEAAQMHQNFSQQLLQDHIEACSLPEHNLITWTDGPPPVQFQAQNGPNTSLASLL

Row | Substance | effect of a mutation on the interaction
1 | Nipped-B-like protein (Homo sapiens), Q6KC79 G15R | decreasing interaction strength
2 | Nipped-B-like protein (Homo sapiens), Q6KC79 P29Q | decreasing interaction strength
